In article PMC9967848:

Key:
Details in all cases: none (in vitro transcript); 20 mM Tris-HCl pH 8, 50 mM NaCl, 1 mM MgCl2; 5 nM tRNA, 30 min incubation; temperature not stated
[1] = test system: EPRS linker (whole linker) (human); assay: fluorescence quenching
[2] = test system: EPRS linker R1R2 (human); assay: fluorescence anisotropy
[3] = test system: EPRS linker R2R3 (human); assay: fluorescence anisotropy
[4] = test system: EPRS linker R1R2R3 (human); assay: fluorescence anisotropy

Substance | Kd [1] [µM] | Kd [2] [µM] | Kd [3] [µM] | Kd [4] [µM]
bovine tRNATrp | 0.511 | – | – | –
human tRNAGlu | 0.886 | – | – | –
human tRNALys3 | 0.589 | 0.209 | > 10 | 0.043
human tRNAPro | 0.449 | – | – | –
